T1: MTDH (Homo sapiens, UniProt Q86UE4)
T1 construct: endogenous in cells; host or cells: EBV-positive NPC43 cells
T1 sequence (Q86UE4 1-582): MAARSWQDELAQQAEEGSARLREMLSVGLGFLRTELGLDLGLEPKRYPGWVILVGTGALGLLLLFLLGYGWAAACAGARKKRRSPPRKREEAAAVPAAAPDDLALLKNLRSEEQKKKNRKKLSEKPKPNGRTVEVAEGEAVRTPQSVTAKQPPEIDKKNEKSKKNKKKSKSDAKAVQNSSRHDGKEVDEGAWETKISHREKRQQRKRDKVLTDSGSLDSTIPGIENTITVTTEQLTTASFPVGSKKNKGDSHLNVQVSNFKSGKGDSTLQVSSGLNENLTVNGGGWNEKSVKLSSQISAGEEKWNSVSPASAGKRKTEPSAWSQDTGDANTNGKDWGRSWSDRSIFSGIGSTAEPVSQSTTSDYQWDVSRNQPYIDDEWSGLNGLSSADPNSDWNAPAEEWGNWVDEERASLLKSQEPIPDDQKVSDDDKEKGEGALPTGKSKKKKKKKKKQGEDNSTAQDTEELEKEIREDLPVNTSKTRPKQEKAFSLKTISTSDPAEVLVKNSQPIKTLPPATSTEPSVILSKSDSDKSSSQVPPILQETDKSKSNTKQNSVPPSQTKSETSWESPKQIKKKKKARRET

B1: Apt-1194: DNA aptamer, SEQ ID NO: 2, from Cell-SELEX and in vivo-SELEX on EBV-positive NPC43; binds MTDH (nucleic acid)
DNA: ATCCAGAGTGACGCAGCACCGAGCGAGTTGGTTTGCTGCGGTGGGCAGAGAGGTGGGGTGGACACGGTGGCTTAGT
modifications: DNA, backbone and methylation of C not given here; further chemistry not fully specified
B2: Apt-2019: DNA aptamer, SEQ ID NO: 1, from Cell-SELEX on LMP1-expressing NPC43 cells; binds CNBP (nucleic acid)
DNA: ATCCAGAGTGACGCAGCAGAATGGGTGGGATTCCTCAGAGGGGTTGGTGAGTTTGTGATGGACACGGTGGCTTAGT
modifications: DNA, backbone and methylation of C not given here; further chemistry not fully specified
B3: Apt-1798: DNA aptamer, SEQ ID NO: 3, top enriched sequence targeting EBV-positive cells (nucleic acid)
DNA: ATCCAGAGTGACGCAGCAATCGTGGACCTGGCTGTGGTTTGCTGAGGTGGGCGCCAATTGGACACGGTGGCTTAGT
modifications: DNA, backbone and methylation of C not given here

Key:
[1] = Thioflavin T fluorescent enhancement assay for G-quadruplex formation; type: physicochemical; conditions: lithium cacodylate buffer or potassium phosphate buffer
Description: Thioflavin T (ThT) is kind of G4 ligand dye, and its fluorescent signal would increase after binding to G4 structures. So, it is widely used in detecting G4 structure. The Apt-2019 was stained by ThT with the existence of Lit or Kt. Circular dichroism (CD) spectra was used for determination of the subtype of G4 structure.
Both Apt-2019 and Apt-1194 are guanine-rich oligonucleotides (GROs) in which the G content are 43 and 41% respectively. GROs can form stable G-quadruplex structures because four guanine bases form a square planar structure called a G-quartet through Hoogsteen base pairing, and these G-quartets spontaneously assemble into four-stranded helical structures termed G-quadruplex (G4) (FIG. 5A) (20). It is well known that G4-forming oligonucleotides are relatively stable against nuclease degradation (21). Therefore, we checked if Apt-2019 and Apt-1194 can form G4 using Thioflavin T (ThT) as a fluorescence light-up probe for G4 formation (22). […] The higher serum stability of Apt-2019 and Apt-1194 than random non-GC rich aptamers (FIG. 5D) can thus be explained by their stable G4 structure. To further characterize these novel NPC-targeting aptamers, we have measured their equilibrium dissociation constant (Kd).

[2] = system: EBV-positive C666-1 tumors; assay: In vivo fluorescence imaging of biodistribution, C666-1 tumors; set-up: species or system mice; conditions: fluorescence-tagged, tail vein injected, IVIS Spectrum imager
Description: Fluorescence-tagged Apt-2019 and Apt-1194 were tail vein injected in mice bearing C15 tumors (an NPC xenograft with high expression of LMP1 (18)) and EBV-positive C666-1 tumors respectively. […] Tumors and organs (e.g., lungs and spleen) were taken out for fluorescence imaging (IVIS Spectrum imager).

EBV-positive C666-1 = assay: Equilibrium dissociation constant on cells, FITC-tagged Apt-1194; type: binding; conditions: serial concentrations of FITC-tagged aptamer
Description: (§1) FIGS. 5A-5G. Characterization of Apt-2019 and Apt-1194. (FIG. 5A) Diagram showing the G-quadraplex structure that can be formed by G-rich aptamers. (FIGS. 5B-5C) Fluorescent enhancement assay (FEA) was used to detect G-quadraplex forming sequences. Both Apt-2019 and Apt-1194 could form into G-quadraplex in the presence of K+ or L+ ions and then light up the ThT ligands. […] (FIGS. 5E-5F) A serial concentrations of FITC-tagged Apt-2019 and Apt-1194 were bound with LMP1-overexpressing NPC43 and EBV-positive C666-1 respectively. Equilibrium dissociation constant (Kd) was then calculated. (FIG. 5G) Apt-2019 was allowed to bind with live NPC cells for 45 mins. Internalization of Apt-2019 was validated by Z-stack imaging of confocal microscope.
(§2) 10 μM aptamers or aptamer pools were dissolved in DBPS with 5 mM MgCl2 as stock and diluted with binding buffer (DBPS with 5 mM MgCl2, 0.1% BSA, […] and 0.45% glucose) into 200 nM, followed by heating at 95° C. to 5 mins and chilling on ice for 5 mins. Cells were trypsinized and incubated in the aptamer solution at 4° C. for 30-60 mins. After incubation, the cells were washed once by precooled binding buffer. At last, the samples were analyzed on BD flowcytometry. […] At last, the bead-aptamer complexes were washed 3 times with binding buffer and analyzed by BD flow cytometer.

[3] = system: EBV-positive NPC cell lines (NPC43, C666-1 and C17); assay: Binding to a panel of EBV-positive and EBV-negative cell lines; conditions: EBV-positive NPC43, C666-1, C17; EBV-negative A549, NP460
Protocol: (§3) 10 μM aptamers or aptamer pools were dissolved in DBPS with 5 mM MgCl2 as stock and diluted with binding buffer (DBPS with 5 mM MgCl2, 0.1% BSA, […] and 0.45% glucose) into 200 nM, followed by heating at 95° C. to 5 mins and chilling on ice for 5 mins. Cells were trypsinized and incubated in the aptamer solution at 4° C. for 30-60 mins. After incubation, the cells were washed once by precooled binding buffer. At last, the samples were analyzed on BD flowcytometry. For flow cytometric analysis of bead assay, the NTA beads were incubated with CNBP-his or MTDH-his containing cell lysates or control lysates for 1 hr at 4° C. and then washed with binding buffer for 3 times. After that, the beads were incubated with FAM-Apt-2019 or FAM-Apt-1194 (200 nM) for 30 mins at 4° C. At last, the bead-aptamer complexes were washed 3 times with binding buffer and analyzed by BD flow cytometer.
(§4) By binding of Apt-1194 & Apt-1798 with a panel of EBV-positive NPC cell lines (NPC43, C666-1 and C17), EBV-negative lung cancer cell line (A549) and nasopharyngcal cell line (NP460), the specificity of Apt-1194 to EBV-positive cells was confirmed (FIG. 4B). Proteins from NPC43 lysate were pulled down by Apt-1194. […] It has been reported that MTDH is a prognosis marker for NPC (19). […] Knockdown of MTDH could suppress proliferation and migration capability in NPC cells (FIG. 4F)

MTDH = target: T1, MTDH; assay: Pull-down from NPC43 lysate with mass spectrometry and western blot; type: binding; conditions: mass spectrometry, validated by Western blot
Protocol: (§5) The pulldown assay was performed by following the protocol from Shang Guan's lab. Then the protein samples were separated in PAGE gels and stained by pierce silver staining kit from Life Technology. The specific bands around 20 kDa or 70 kDa were sent to Biotech Company (Bei Jing) for mass spectrometry analysis.
as §4

[4] = compared with random aptamer sequences
CNBP-knockout cells = assay: Aptamer binding to CNBP-knockout vs parental NPC cells
Protocol: as §3
(§6) To identify the target surface protein which was bound by the Apt-2019 on LMP1-expressing cells, we have performed pull-down assay using Apt-2019. […] The proteins from this band were purified from the gel and subjected for protein identification by tandem mass spectrometry (MS/MS). […] To validate CNBP as the target of Apt-2019, the pull-down proteins from Apt-2019 and Apt-library in LMP1-cell lysates were blotted by the antibody against CNBP (FIG. 2A). […]

CNBP [5] = target: T2, CNBP (Homo sapiens, UniProt P62633); assay: Pull-down assay with mass spectrometry and western blot (LMP1-cell lysates); type: binding; conditions: band around 20 kd vs Apt-library; MS/MS; blotted with CNBP antibody
T2 construct: endogenous in cells; host or cells: LMP1-expressing NPC43(noEBV) cell lysate
Protocol: as §5
To identify the target surface protein which was bound by the Apt-2019 on LMP1-expressing cells, we have performed pull-down assay using Apt-2019. […] The proteins from this band were purified from the gel and subjected for protein identification by tandem mass spectrometry (MS/MS). […] To validate CNBP as the target of Apt-2019, the pull-down proteins from Apt-2019 and Apt-library in LMP1-cell lysates were blotted by the antibody against CNBP (FIG. 2A). The docking model between the Apt-2019 and CNBP was also predicted by HDOCK (sec worldwide website: hdock.phys.hust.edu.cn/) (FIG. 2A). Another validation assay was done by flow analysis of CNBP-tagged and non-tagged beads after binding with Apt-2019-FAM (FIG. 2B). […] Moreover, Apt-2019-bounded CNBP was specifically expressed on the cell surface, as both the fluorescent signals of CNBP and Apt-2019 were localized on the ‘non-permeabilized’ NPC43-LMP1 cells. (FIG. 3A). […] All these confirmed Apt-2019 could bind to the cell surface CNBP on NPC cells. […]

NPC43^noEBV-LMP1 cells = assay: Flow cytometry and confocal binding to LMP1-expressing cells vs vector control; conditions: among 8 selected aptamers; flow cytometric analysis and confocal microscopy; FAM-tagged
Protocol: as §3, with “cytometer. […]” for “cytometer.”
(§7) Identification of Apt-2019 which preferentially binds to LMP1-expressing cells. […] Flow cytometric analyses have shown the gradual increase of fluorescence signals on NPC43^noEBV-LMP1 cells bound with the FAM-tagged aptamers enriched from round 9, 11 and 12 Cell-SELEX (FIG. 1A), indicating a successful enrichment process. […] 8 sequences were selected out based on the sequence similarity and abundance of sequence reads. […]

[6] = system: LMP1-overexpressing NPC43; assay: Equilibrium dissociation constant on cells, FITC-tagged Apt-2019; type: binding; conditions: serial concentrations of FITC-tagged aptamer
Description: as §1, §2

[7] = system: LMP1-expressing NPC43 cells; assay: Internalization by Z-stack confocal microscopy; type: cell-based; conditions: live cells, 45 mins
Description: as §1
In live cell imaging, the NPC43-LMP1+ and NPC43-LMP1− cells were seeded in 3.5 cm confocal dishes 24 hrs before. The cells were washed with PBS 2 times and then incubated with 200 nM aptamers in binding buffer for 30 mins and washed with DPBS twice after. The Zeiss LSM880 was used for taking confocal images. In immunofluorescence and aptamer co-staining, the cells were fixed by 4% PFA for 15 mins and then blocked with 3% BSA for 1 hr. CNBP antibody was incubated with the cells in 1:100 dilution (Abclonal, 15110) for 1 hr followed with anti-Rabbit Alex-555 antibody (1:500) for 1 h. After washing for 3 times, FAM-Apt-2019 was added and incubated for 1 h.

CNBP [8] = target: T2, CNBP; assay: Flow analysis of CNBP-tagged and non-tagged beads with Apt-2019-FAM; type: binding; conditions: Apt-2019-FAM 200 nM; CNBP-tagged vs non-tagged beads
Protocol: as §3, §6

[9] = system: LMP1-transfected cell lines including HONE1, C17 and NP460; assay: Binding to other LMP1-transfected cell lines vs vector control; conditions: compared to the vector control cells
Protocol: as §3, §7

[10] = system: C15 tumors (an NPC xenograft with high expression of LMP1); assay: In vivo fluorescence imaging of biodistribution, C15 xenograft; set-up: species or system mice; conditions: fluorescence-tagged, tail vein injected, IVIS Spectrum imager
Description: Fluorescence-tagged Apt-2019 and Apt-1194 were tail vein injected in mice bearing C15 tumors (an NPC xenograft with high expression of LMP1 (18)) and EBV-positive C666-1 tumors respectively. We have also generated control aptamers to Apt-2019 and Apt-1194 by replacing all the G to C, so as to destroy the G4-forming ability. The resulting control aptamers are named as Apt-NG^2019 (SEQ ID NO: 4; Apt-NG^2019 (14-63) Aptamer: […]) and Apt-NG^1194 (SEQ ID NO:5; Apt-NG^1194 (1-58) Aptamer: […] GGCC). Tumors and organs (e.g., lungs and spleen) were taken out for fluorescence imaging (IVIS Spectrum imager).

T2 sequence (P62633 whole entry): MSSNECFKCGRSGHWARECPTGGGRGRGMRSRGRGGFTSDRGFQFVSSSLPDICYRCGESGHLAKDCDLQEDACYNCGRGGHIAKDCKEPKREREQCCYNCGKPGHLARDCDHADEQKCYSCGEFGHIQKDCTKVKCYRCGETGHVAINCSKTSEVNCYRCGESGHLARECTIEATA

Molecule	G-quadruplex (G4) formation, ThT light-up [1]	accumulation in the tumors [2]	equilibrium dissociation constant (Kd) (EBV-positive C666-1)	specific binding to EBV-positive vs EBV-negative cell lines [3]	target identified by pull-down (MTDH)	serum stability [4]	binding after CRISPR-knockout of CNBP (CNBP-knockout cells)	target identified by pull-down (CNBP [5])	preferential binding to LMP1-expressing cells (NPC43^noEBV-LMP1 cells)	equilibrium dissociation constant (Kd) [6]	internalization into cells [7]	binding to CNBP-tagged beads (CNBP [8])	specific binding ability in LMP1-transfected cell lines [9]	accumulation in the tumors [10]
B1	could fold into G4	accumulation	nanomolar range	could bind specifically to EBV-positive cell lines but not to EBV-negative cell lines	MTDH was found to be the target	much higher serum stability than random aptamer sequences	–	–	–	–	–	–	–	–
B2	could fold into G4	–	–	–	–	much higher serum stability than random aptamer sequences	inhibited the binding	CNBP was found to be the potential target	highest preferential binding to LMP1-expressing cells	nanomolar range	could be internalized	could specifically bind to the CNBP-tagged beads	could preferentially bind to all these LMP1-overexpressing cells	accumulation
B3	–	–	–	could bind specifically to EBV-positive cell lines but not to EBV-negative cell lines	–	–	–	–	–	–	–	–	–	–

— patent US20250108137A1, “APTAMERS SPECIFIC TO EBV-ASSOCIATED MALIGNANCIES AND THEIR APPLICATIONS IN CANCER IMAGING AND THERAPIES” (priority 2022, published 2025)
